Source: the supplement of paper PMC7125110
± gives the standard error. Variants at the floor of the assay were thinned out.

B1: glmS ribozyme (parent)
chain: AUAAAAGCGCCAGAACUACAGAAAUGUAGUUGACGAGGAGGAGGUUUAUCGAAUUUUCGGCGGAUGCCUCCAAA

How the values were obtained:
Details in all cases: with glucosamine-6-phosphate
[1] = variants of: B1; assay: self-cleavage kobs at 640 uM GlcN6P; higher = faster cleavage; RNA array
Method in brief: (§1)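 The measurements used barcoded ribozyme variants on sequenced MiSeq chips, transcribed in situ by E. coli RNA polymerase and tracked at 37 °C with a hybridised Cy3 probe. Glucosamine-6-phosphate, 40 μM to 10 mM in HEPES/KCl/Mg(OAc)2 buffer, was flowed in while tiles were imaged over ~14 h. Baseline-normalised signals, also normalised to non-cleaving reference variants, gave per-tile medians that were fit to one- or two-exponential decays for kobs. kcat and KM resulted from weighted Michaelis–Menten fits across concentrations.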

[2] = variants of: B1; assay: self-cleavage kobs at 2500 uM GlcN6P; higher = faster cleavage; RNA array
Method in brief: as §1

[3] = variants of: B1; assay: self-cleavage kobs at 10000 uM GlcN6P; higher = faster cleavage; RNA array
Method in brief: as §1

Variant	self-cleavage kobs at 640 uM GlcN6P [1] [s⁻¹]	self-cleavage kobs at 2500 uM GlcN6P [2] [s⁻¹]	self-cleavage kobs at 10000 uM GlcN6P [3] [s⁻¹]
C58G C61U G63U C68A	0.000162 ± 5.6e-05	0.000151 ± 4.4e-05	–
A36U G40U A42G	< 1e-05	–	–
A48U U57G G62U	< 1e-05	< 1e-05	–
U69G C71A	6.61e-05 ± 2.3e-05	–	–
G37U G38U G43A	< 1e-05	–	–
A39U G43C C70G	< 1e-05	< 1e-05	–
G37U U55G U69G	3.09e-05 ± 1.4e-05	–	–
U47C C67A	0.000623 ± 0.00018	0.000286 ± 9.8e-05	0.000244 ± 8e-05
C58U A64C	< 1e-05	–	–
A42U C61U C67U	< 1e-05	–	–
G40U G41U C68U	< 1e-05	< 1e-05	–
A53G G62C	< 1e-05	< 1e-05	–
A53U C67G C68G	4.57e-05 ± 2.1e-05	–	–
A39G U49A G60U	< 1e-05	< 1e-05	–
A42C U54A U65C	< 1e-05	–	–
U55G G66A C70G	0.000126 ± 2.1e-05	0.000206 ± 4.7e-05	–
U45A A48C G60U C67U	< 1e-05	–	–
C50U U56A G66U	< 1e-05	< 1e-05	–
U47A G66U C68A	0.00243 ± 0.00077	5.79e-05 ± 1.7e-05	–
A39G G41A U49C	< 1e-05	–	–
G37C G60U U69A	< 1e-05	< 1e-05	–

Variant	self-cleavage kobs at 640 uM GlcN6P [1] [s⁻¹]	self-cleavage kobs at 2500 uM GlcN6P [2] [s⁻¹]	self-cleavage kobs at 10000 uM GlcN6P [3] [s⁻¹]
G38U U45G G51A	< 1e-05	< 1e-05	–
U45A G63C	< 1e-05	< 1e-05	–
G43A G44A C58U	< 1e-05	–	–
U47C U49C G62A G63A	< 1e-05	–	–
A6C A33U A52G U57C C70U	–	< 1e-05	–
A42C G43U G44U G51U	< 1e-05	–	–
G40C G51C G63C C71A	< 1e-05	< 1e-05	–
A39U C50G A52U G59U C67G	< 1e-05	–	< 1e-05
C50G U54C G60C C61G	0.000234 ± 5.5e-05	8.41e-05 ± 2.8e-05	–
G41U C50U G60C	< 1e-05	–	–
A42C G43U U57A	< 1e-05	< 1e-05	< 1e-05
U49C G51A	< 1e-05	–	< 1e-05
G43U G51C G59C G62U C68U	< 1e-05	–	–
G38C G60C U65G	< 1e-05	–	–
C70U A72C	0.000987 ± 0.00042	0.0035 ± 0.0017	–
A6C A48U C61U C70G	–	< 1e-05	–
A39G G51C U65C U69A C70A	< 1e-05	< 1e-05	–
G38C U49A	< 1e-05	< 1e-05	< 1e-05
U47C U69C	0.000374 ± 0.00011	0.00197 ± 0.00045	–
U47C U69G	4.72e-05 ± 1.9e-05	0.000104 ± 2.3e-05	6.08e-05 ± 1.5e-05
A39C U46A U56G	4.61e-05 ± 1.8e-05	–	–

Variant	self-cleavage kobs at 640 uM GlcN6P [1] [s⁻¹]	self-cleavage kobs at 2500 uM GlcN6P [2] [s⁻¹]	self-cleavage kobs at 10000 uM GlcN6P [3] [s⁻¹]
U55A C67A C70G	0.000113 ± 2.4e-05	7.88e-05 ± 1.6e-05	–
U46C C71G	7.56e-05 ± 1.5e-05	0.000331 ± 5e-05	0.000149 ± 6.2e-05
G37U G44C U47C G63A	< 1e-05	< 1e-05	–
A48C G60C C71G	< 1e-05	< 1e-05	–
G37C U46G C50U	< 1e-05	–	< 1e-05
U54A G66A C67A	0.00151 ± 0.00064	0.00163 ± 0.00044	–
G43U G63U C71G	< 1e-05	< 1e-05	–
G59A U69A	< 1e-05	–	–
G38C G43C C68U	< 1e-05	–	–
U47A G66C C71U	0.000187 ± 6.3e-05	0.000491 ± 0.00012	–
G41U U55G A64G	8.52e-05 ± 3.1e-05	0.000147 ± 4.4e-05	–
U55G G59A C70A	< 1e-05	< 1e-05	–
G44A C61A G66A	< 1e-05	–	–
A42G U54G U55G U65A C67A C71U	0.000215 ± 3.1e-05	8.43e-05 ± 2e-05	–
U49G C68G U69G	5.67e-05 ± 2.1e-05	–	–
G38U C58U C67U C70U C71A	9.38e-05 ± 3.9e-05	–	–
A6C G9A G32A	–	< 1e-05	–
G63C G66U	< 1e-05	< 1e-05	< 1e-05
G38U A48U C61G C71U	< 1e-05	–	–
G38U G44C U56C	< 1e-05	< 1e-05	–
A53G U55A U65G	0.000667 ± 8.4e-05	0.00174 ± 0.00031	–
